According to patent publication US20190248902A1 (published 2019):

T1: human ASGR-1 mutant construct H203 (human, UniProt P07306 1-291)
T1 construct: Arg/Glu scanning: non-arginine residues were changed to arginine; Transiently expressed on CHO-S cells
T1 sequence: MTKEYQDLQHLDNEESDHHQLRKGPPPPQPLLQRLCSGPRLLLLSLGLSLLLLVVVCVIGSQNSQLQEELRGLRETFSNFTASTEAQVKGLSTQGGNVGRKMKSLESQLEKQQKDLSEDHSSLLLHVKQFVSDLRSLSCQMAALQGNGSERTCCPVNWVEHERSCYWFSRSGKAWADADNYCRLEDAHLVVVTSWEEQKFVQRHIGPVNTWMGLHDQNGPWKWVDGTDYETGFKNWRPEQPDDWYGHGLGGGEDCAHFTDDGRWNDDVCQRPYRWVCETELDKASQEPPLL

T2: human ASGR-1 (wild type) (human, UniProt P07306 1-291)
T2 construct: also called wt ASGR1; huASGR-1
T2 sequence: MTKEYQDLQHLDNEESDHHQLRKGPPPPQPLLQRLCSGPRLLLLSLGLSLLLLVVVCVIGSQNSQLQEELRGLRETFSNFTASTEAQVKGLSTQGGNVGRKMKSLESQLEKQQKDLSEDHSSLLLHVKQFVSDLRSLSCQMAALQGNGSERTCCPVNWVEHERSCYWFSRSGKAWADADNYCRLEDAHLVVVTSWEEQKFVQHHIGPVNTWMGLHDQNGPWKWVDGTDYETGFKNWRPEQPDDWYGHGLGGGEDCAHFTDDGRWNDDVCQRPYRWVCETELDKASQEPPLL

T3: Soluble ASGR-1 (human, UniProt P07306 62-291, biotinylated)
T3 construct: Soluble recombinant protein; also called recombinant, soluble ASGR-1 biotinylated protein
T3 sequence: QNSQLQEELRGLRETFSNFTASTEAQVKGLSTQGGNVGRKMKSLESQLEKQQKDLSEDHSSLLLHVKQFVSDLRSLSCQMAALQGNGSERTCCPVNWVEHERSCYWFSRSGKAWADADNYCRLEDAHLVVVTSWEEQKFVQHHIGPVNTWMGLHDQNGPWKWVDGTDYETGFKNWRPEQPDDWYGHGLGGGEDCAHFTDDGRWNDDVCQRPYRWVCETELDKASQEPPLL


What was measured:
[1] = target: T1, human ASGR-1 mutant construct H203; assay: FACS ratio: 65C12 geomean / this mAb geomean
Outline: (§1)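 Value is the geomean of reference antibody 65C12 divided by that of the test mAb, correcting for construct expression. Binding was measured by flow cytometry on transiently transfected CHO-S cells after 1 h at 4 °C with antibody at 5 ug/ml. Detection used an anti-Fc Alexa 647 secondary, with 7-AAD to exclude dead cells.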

human ASGR-1 (wild type) = target: T2, human ASGR-1 (wild type); assay: FACS ratio: 65C12 geomean / this mAb geomean
Outline: as §1

[2] = target: T1, human ASGR-1 mutant construct H203; assay: FACS ratio: H203 normalized value / wt normalized value
Outline: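 Transiently transfected CHO-S cells expressing wild-type or mutant hASGR-1 incubated with antibody at 5 ug/ml, 1 h at 4 °C; bound antibody detected by Alexa Fluor 647 anti-Fc plus 7-AAD, by flow cytometry. Binding normalized to expression using an unaffected antibody (65C12), then to wild type; hits defined as >3× IQR above third quartile.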

Soluble ASGR-1 = target: T3, Soluble ASGR-1; assay: limited antigen binding assay; biotinylated soluble ASGR-1 coated at 2.5 ng/mL on LumAvidin beads, FACS
Procedure: To assess antibody and antigen interaction strength (relative binding affinity), ASGR-1 specific, ligand competing antibody hybridoma supernatants were tested in a limiting antigen binding assay. Titrated amounts of recombinant, soluble ASGR-1 biotinylated protein was incubated with streptavidin-coated LumAvidin Beads® for 45 minutes in the dark at room temperature and washed twice. Beads were resuspeneded in FACS buffer containing Stabilguard® and 0.05% Sodium Azide. Antigen-bound beads were then incubated with normalized hybridoma supernatant sample or controls for 18 hours in the dark at room temperature, washed twice, incubated with Alexa Fluor® 488 IgG fragment-specific detection antibody for 15 minutes in the dark at room temperature, washed once and finally resuspended in FACS buffer. Samples were analyzed using an Intellicyt iQue™ Screener Platform. FACS buffer supplemented with 1 mM Calcium Chloride was used in all steps. […] In this assay method, the antibody binding signal correlates with antibody affinity. Antibody binding data for a representative antigen coating concentration that fell in the linear range of the instrument signal detection is shown in Table 7.2. The degree of antibody binding to the target (ASGR-1) correlates with the measured fluorescent intensity and thus allows a relative comparison of affinities across the panel.

| Expression Normalization to mAb 65C12 [1] | Expression Normalization to mAb 65C12 (human ASGR-1 (wild type)) | Normalization to wt ASGR1 Binding [2] | FACS Geomean (Soluble ASGR-1) [FACS Geomean] | Binder |
| --- | --- | --- | --- | --- |
| 3.25 | 4.59 | 0.707 | – | 218G4 (antibody, V domains shown, mAb) VH: QVQLVESGGGVVQPGRSLRLSCAASGFTFSSYGLHWVRQAPGKGLEWVAVIWYDGSNKYYADSVKGRFTISRDNSKNTLYLQMNSLRVEDTAVYYCANWYYYYYGMDVWGQGTTVTVSS VL: QSVLTQPPSVSAAPGQKVTISCSGSSSNIGNNYVSWYQQLPGTAPKLLLYDSNKRPSGIPARFSGSKSGTSATLGITGLQTGDEADYYCGTWDSSLNTVVFGGGTKLTVL |
| 7.35 | 4.21 | 1.75 | – | 197G3 (antibody, V domains shown, mAb) VH: QVQLVESGGGVVQPGRSLRLSCVASGFTFSSHGMHWVRQAPGKGLEWVAVIWYDGSNKNYADSVKGRFTISRDNSKNTLYLQMNSLRAEDTAVYYCARDPSVGYDGMDVWGQGTTVTVSS VL: DIQMTQSPSSLSASVGDRVTITCRASQGIGNHLAWFQQKPGKAPKSLIYAASSLQSGVPSKFSGSRSGTDFSLTISSLQPEDFATYYCQQYSNYPVTFGPGTKVDIK |
| 1.96 | 2.61 | 0.75 | – | 198G3 (antibody, V domains shown, mAb) VH: QVQLVESGGGVVQPGRSLKLSCAASGFTFSTYGMHWVRQAPGKGLEWVAVIWYDGTNKNYADSVKGRFTISRDNSKNTLCLQMNSLRAEDTAVYYCARDQGVGYDGLDVWGQGTTVTVSS VL: DIQMAQSPSSLSASVGDRVTITCRTSQGIGKYLAWFQQKPGKAPKSLLYKASSLQGGVPSKFSGSGSGTDFTLTISSLQPEDFATYYCQQYMTYPLTFGGGTKVEIK |
| 1.95 | 1.99 | 0.978 | – | 194C10 (antibody, V domains shown, mAb) VH: QVQLQQWGAGLLKPSETLSLTCAVSGGSFRYYYWSWIRQPPGKGLEWFGEINHSGSTNYNPSLKSRVTISIDTSKNQFSLKLRSVTAADTAVYYCARDYGAFDIWGQGTMVTVSS VL: EIVLTQSPGTLSLSPGERATLSCRASPSVNSGYLAWYQQKPGQTPRLLIFGASSRATGIPDRFSASGSGADFTLTISRLEPEDFAVYFCQQYESSPWTFGQGTKVEIK |

Further lines, the binder ahead of its results:

| Binder | Expression Normalization to mAb 65C12 [1] | Expression Normalization to mAb 65C12 (human ASGR-1 (wild type)) | Normalization to wt ASGR1 Binding [2] | FACS Geomean (Soluble ASGR-1) [FACS Geomean] |
| --- | --- | --- | --- | --- |
| 176H4 (antibody, V domains shown, mAb) VH: QVQLVESGGGVVQPGRSLRLSCAASGFTFSSYGMHWVRQAPGKGLEWVAIIWYDGSYKYYADSVKGRFTISRDNSKNTLYLQMSSLRAEDTAVYYCARDAHDFWSGYFAYWGQGALVTVSS VL: DIVMTQTPLSLSVTPGQPASISCKSSQSLLHGDGKTYLYWYLQKPGQPPQLLIYEVSNRFSGVPDRFSGSGSGTDFTLKISRVEAEDVGIYYCMQSIQIPWTFGQGTRVEIK | 2.52 | 1.67 | 1.5 | – |
| 75G3 (antibody, V domains shown, mAb) VH: QVQLQQWGAGLLKPSETLSLTCAVYGGSLSGSYWSWIRQPPGKGLEWIGEINLSGSTNYNPSLKSRVTISVDTSKSQFSLTLRSVTAADTAVYYCARDYGGLDYWGQGTLVTVSS VL: EIVLTQSPGTLSLSPGERATLSCRARQNVDSSYLAWYQQKPGQAPRLLIYGASSRATGIPDRFSGSGSGTDFTLTISRLEPEDFAVFYCQQYERSPWTFGQGTKVEIK | 1.78 | 1.51 | 1.18 | – |
| 193E7 (antibody, V domains shown, mAb) VH: QVQLQQWGAGLLKPSETLSLTCAVYGGSFSGYFWTWIRQPPGKGLEWIGEINHSGSTNYNPSLKSRVTISVDTSKNQFSLKLSSVTAADTAVYYCARDYGADYWGQGTLVAVSA VL: DIQMTQSPSSLSASVGDRVTITCRASQGIRNDLGWYQQKPGKAPKRLIYSASSLQRGVPSRFSGSGSGTEFTLTISSLQPEDFATYYCLQHKRYPLTFGGGTKVEIK | 1.87 | 1.58 | 1.18 | – |
| 190F8 (antibody, V domains shown, Tested as hybridoma supernatant at normalized concentration) VH: QVQLVESGGGVVQPGRSLRLSCAASGFTFSTYGMHWVRQAPGKGLEWVAVIWYDGSNKNYADSVKGRFTISRDNSKNTLYLQMNSLRAEDTAVYYCARDQGVGYDGLDVWGQGTTVTVSS VL: DIQMTQSPSSLSASVGDRVTITCRTSQGIGNYLAWFQQKPGKAPKSLLYKASSLQSGVPSKFSGSGSGTDFTLTISSLQPEDFATYYCQQYMTYPLTFGGGTKVEIK | – | – | – | 13900 |
| 190F8 (antibody, V domains shown, mAb) VH: QVQLVESGGGVVQPGRSLRLSCAASGFTFSTYGMHWVRQAPGKGLEWVAVIWYDGSNKNYADSVKGRFTISRDNSKNTLYLQMNSLRAEDTAVYYCARDQGVGYDGLDVWGQGTTVTVSS VL: DIQMTQSPSSLSASVGDRVTITCRTSQGIGNYLAWFQQKPGKAPKSLLYKASSLQSGVPSKFSGSGSGTDFTLTISSLQPEDFATYYCQQYMTYPLTFGGGTKVEIK | 1.71 | 1.54 | 1.11 | – |
| 194C1 (antibody, V domains shown, mAb) VH: QVQLVESGGGVVQPGRSLRLSCAASGFTFSSYGMHWVRQAPGKGLEWVAVIWYDGSNEHYADSVKGRFTISRDNSKNTLYLQMNSLRAEDTAVYYCARNRGVGYYGLDVWGQGTTVTVSS VL: DIQMTQSPSSLSASVGDRVTITCRASQGISNYLAWFQQKPGKAPKSLIYAASSLQSGVPSKFSGSGSGTDFTLTISSLQPEDFATYYCLHYLTYPLTFGGGTKVEIK | 2.33 | 2.69 | 0.868 | – |
| 191G1 (antibody, V domains shown, mAb) VH: QVQLVESGGGVVQPGRSLRLSCAASGFTFSSYGMHWVRQAPGKGLEWVAVIWYDGSNEHYADSVKGRFTISRDNSKNTLYLQMNSLRAEDTAVYYCARDRGVGYYGLDVWGQGTTVTVSS VL: DIQMTQSPSSLSASVGDRVTITCRASQGISNYLAWFQQKPGKAPKSLIYAASSLQSGVPSKFSGSGSGTDFTLTISSLQPEDFATYYCQHYLTYPLTFGGGTKVEIK | 2.37 | 2.22 | 1.07 | – |
| 191G10 (antibody, V domains shown, mAb) VH: QVQLVESGGGVVQPGRSLRLSCAASGFTFSSYGMHWVRQAPGKGLEWVAVIWYDGSNKNYADSVKGRFTISRDNSKNTLYLQMNSLRAEDTAVYYCARDQGVGYDGLDVWGQGTTVTVSS VL: DIQMTQSPSSLSASVGDRVTITCRTSQGIGKYLAWFQQKPGKAPKSLLYKVSSLQSGVPSKFSGSGSGTDFTLTISSLQPEDFATYYCQQYMTYPLTFGGGTKVEIK | 1.51 | 1.66 | 0.912 | – |
